Results taken from paper PMC6987092, “Characterization and diversity of the complete set of GH family 3 enzymes from Rhodothermus marinus DSM 4253” (Scientific Reports, 2020).

B1: RmBgl3C (Rhodothermus marinus DSM 4252) (protein)
chain: CQKAEQQPPSTAAFPPLSSYDEQARALLEQMTLEEKIGQMIQAEQAFLQDPYDIQTYHLGSILSGGNSDPADGNSLEAWTEVYDSLQAIALRTRLGIPLLYGIDAVHGHSNVEGAVVFPHHIGLGATRDPDLVERVYRITAIEMRATGIHWNFAPCIAVARDERWGRTYESFSEDPELVATLGAAAVRGLQNGGLNNPLAVLATAKHFAGDGGTAFGTGGPQGALLDQGDVRLDEATFRRIHVRPYIDAIQAGVGSIMVSYSSWNGVKMTGHKYMLTDVLKGELGFEGIVISDYNAIDQVHPDYKTAIEIAINAGIDMAMVPTRYREFFQLLKELVEEGRVPMERIDDAVLRILRVKFAMGLMDGPEHVFADRSLWAKFGSAEHRAVAREAVRKSLVLLKNENQTLPLAKDLGRIHVAGLHADNLGYQAGGWTIDWQGGSGDITEGTTILEAIRKAVAPGTEVTYSEDGSGAAGADVAIAVIGERPYAEFLGDRSDLSLDPDDVAVVRRLKEAGVPVVVILISGRPMIINDVLEMADAFIAAWLPGSEGDGVADVLFGDYAPTGKLPFSWPRSMDQIPINVGDEDYDPLFPFGYGLTY
B2: RmXyl3A (Rhodothermus marinus DSM 4252) (protein)
chain: QERPAYLDPTLPIEVRVEDLLGRMTLEEKVAQMLSMRQTKRLIVDEQNRFDPSRAPEWFKLGIGRIERPSEYFQTAREAAAFTNAIQRWVRENTRLGIPVIFHEEALHGLRAAEATSYPQAIALASTWNPALVERVYGRIAREVRARGVHQVLAPVVDVGREPRWGRIEETFGEDPYLVAEMGKAAVWGLQGRRVPPVGPGHVIATLKHMAGHGQPESGINVAPVFFGERHLREVFLYPFREAVEKAHALSVMASYNEIDGIPSHANAWMLRDVLRGEWGFRGVIVSDWHGIPQLITRHHVAENLEEAARLALQATVDVELPDYEAYATLVDQVRRGLIPELAVDEAVRRLLWAKFAVGLFDGEPYVDEAEASRVNASEEDRALALEAAREAIILLKNDGLLPLEAGRLDRVAVIGPHAGEVLLGGYSGRPRYTVSILEGLRERLRGEAEVLYAEGVRITEDSVFTDEPQPHLGGTWARQRNAAHRVVFTPPEANRSRIEEAVALARTSDVVVLVVGGNEQTAREAYAPYHLGDRLSLRLPGQQEELVKAVLATGVPVVLVVIGGRPYVITELVDRVGAIVWGWYLGQETGRAVAEVLLGDYNPAGRLPITIPRHEGQLPAYYSHKPSKELDYVDGTSRPLFPFGYGLSYTRFAYRSVRLEPDRVGGCGVVRVLVELENVGDRAGDEVVQVYVRDRVSSVARPVKELKGFRRVHLGPGERKVVEIELGPEAFAFYGLEMERVVEAGWFDVLVGGNSEELISVPLEITEGCNLGR
notes: locus tag is that of the type strain DSM 4252T homolog, gene cloned from DSM 4253
B3: RmNag3 (Rhodothermus marinus DSM 4252) (protein)
chain: HRSELDTAPPDRTRPGAWTETQLRTLTLAQQIGQLFAVRARGVFQSVDDPDYRELVRLVEQFQVGGVIFFQGDPYSQAMLANELQRRSRLPLLIAQDTEWGVAMRVRRTTSFPRAMAIGATGNPDYAYAVGYVTAREARALGVHQLYAPVADVNNNPMNPIINVRAFGEDPLQVATMVRAFVRGVQDAGAIATAKHFPGHGDTSIDSHSDLPVLRFDRKRLDTLELVPFRAAIKAGVQSIMTGHLALPRLDPTPNLPASLSRRITHELLREELGFDGLVVTDALEMQGVTKHFGVGEAAVRALEAGADMLLLSEDVEAARSAILQAVAQGRLSRARIEASVRRILLAKERLGLHRERLVDLNAIPYVVGIAPHQALSQTIARASLTLLRNEGNLLPLPDVPATPRQLQVIILSDSDDPATGRFFVQTLREIAPDDRIASRLLDVRSHPDDYRAALEAAARADVVLVPAYLFVRSGTGRIRLPERQRTFLDALIAQGRPVVLIAFGNPYLIMDLQRPPAVYLAAYGGSESTQRAAVQAIFGQAPFTGRLPITIPGHFQRGDGLQLEQVAPRLAYPEEVGMSTQRLYRVDSLLRAAIADSAFPGAAVAIGRGPAIVWLKGYGHFTYTSDQRVTPSSVFDLASLTKVVVTTTAAMQLYEAGKLDLDAPVVRYLPEFGQNGKERVTIRQLLSHTAGLAPFHPFHRMGITTAEAVRQAILSDSLIYEPGTQSRYSDLGMIVLGWVIERITGQPLDRYAAEHIFRPLGMRHTGFRPVGRPDTTVVPTEIDTIFRHRLIQGEVHDETAWILGGVAGHAGLFSTAEDLARFAYMLVNEGRIGGRPFLKPETIRLFTTPVDPERAGTRALGWDTRSREGYSSAGRLFGSRSFGHTGFTGTSIWIDPDQQLFVILLTNRVYPTRENRKHLAVRARLADLAYEALIGPPTLNLNALLP
notes: recombinant in E. coli BL21 C43 (pJOE3075), signal peptide removed, C-terminal His-tag, includes beta-lactamase domain; locus tag is that of the type strain DSM 4252T homolog, gene cloned from DSM 4253
B4: RmBgl3A (Rhodothermus marinus DSM 4252) (protein)
chain: MRTLRLLTLSLLWSGWLLPAIAQVDRAREDSLIEALLARMTLEEKLGQLTLYNGGMAETGPVVREGEPDAIRRGRVGAVMNFFGAEAVCAMQRQAVEESRLGIPLLFALDVIHGFRTIFPVPLAEAATFDPALVEQAARVAAGEASAVGLNWTFAPMVDIARDARWGRIVEGSGEDPYLGAVMAAARVRGFQGRDLRDPTTILATAKHFAAYGAAEAGRDYNTVDVSERTLREVYLPPFEAAVRAGALSIMSAFNEIGGVPATADRWLLTDVLRHEWGFEGLVVSDYTSVWELLFHGIAADSAEVGRKALEAGVDMDMVSGIYVRKLAEEVRAGRLSEAVVDEAVRRVLRVKYRLGLFEDPYRYCRDASREQVLLSPAHRRLAREVARKAIVLLKNEGELLPLADTLQRVAVIGALANDSASVLGPWAAAGRPEDAVTILEGIRAALPGATVRYAPGYAEVPSGSFQEMVAAALSPDTSGFAEAEAVARWAEVVILVLGEHRELSGEAASRASVELPGVQLALAWRLLALGRPVVVVLMNGRPLAIPELAASAPAIVEAWFLGTEMGHAVADVLLGKASPGGRLPVSFPRATGQEPLYYNHKPTGRPPRAEEKYTSKYVDVPWTPLYPFGYGLTYTTFAYDSLRLSRRRLGLDDTLEVVVSVTNTGRRRGEEVVQLYVRDEVASVTRPVKELKGFARVELAPGETKAVQFRLPVRALRFWGLEGGWVVEPGWFTLWVGPSSAEGLQARFEVVSP
notes: recombinant in E. coli BL21 C43 (pJOE3075), C-terminal His-tag, no signal peptide predicted; locus tag is that of the type strain DSM 4252T homolog, gene cloned from DSM 4253
B5: RmBgl3B (Rhodothermus marinus DSM 4252) (protein)
chain: QSSRVDSLLAAMTLAEKISLLHGAIDPTGEAGAGYVPGVPRLGIPAMRLTDGPAGIRTRHPATALPAPVALAASFDPELAYRYGHVMGIEGRARRHEVLLSPMVNIVRVPEAGRNFETFSEDPLLSAEMVAAEVRGIQDAGMMATVKHYVANNFENDRMRVNVVVDERTLREIYLPGFEAAIKAGAAAVMCAYNRVNGPYACDNEMLLTDILRDEWGFEGWVMTDWFAGHSLESLVRGLDQEMPGYTIPFSSPDMPLAPAVFADSLLAAVESGRIDEAYVDRAVRRILVQMEQFGLLDGESTPPEINIEAHAAVAREVAEAGAVLLRNENQTLPLSERDLQHLVVIGPTATRPLIGGGGSSRVQPFRTTSTLAALQELAGPQAQIRYVPGIDLDGMPVPSSALRTPDGQPGLLRQGADGTTQVDAQLDFTGERALPPGSQWTWTGTLTAPTAGVYELKLQTAGGVGTLSIDGQPVLRTGMFFSDASLIPTADSLENATYRIELQAGQQLSLTVQISGQVPSLPFLPAGQNPVQVRLAWVTPERRAAFLEEAAEAARAAHAAIVFVYEEGTEGRDRETLALRPDQDALVEAVAAANPRTTVVMNVGAPTLMPWAERVGAILLMWYPGQEGGWATADVLLGRANPAGRLPVTFPRRAEDAPTASPERYPGVDLTARYDEGIFVGYRWYDAQQIEPLFPFGHGLSYTTFAYENLRVEPDGDGFVVRFVVRNTGDRAGSDVPQVYLGPPENPPVPMAVRQLVGFRRVTLAPGEAQEVTVRIDGRALSYWSVEDHAWVKATGRRTLYVGASARDLRLQTEIDVQ
notes: recombinant in E. coli BL21 C43 (pET-21b(+)), signal peptide removed, C-terminal His-tag; locus tag is that of the type strain DSM 4252T homolog, gene cloned from DSM 4253

What was measured:
RmXyl3B = target: T1, RmXyl3B (Rhodothermus marinus, UniProt D0MHL5); experiment: pNP release at […] nm; type: biochemical; details: 20 mM citrate phosphate pH 5.6, 60 °C
T1 construct: gene Rmar_1081; locus tag is that of the type strain DSM 4252T homolog, gene cloned from DSM 4253

purified protein [1] = substrate: O=[N+]([O-])c1ccc(O[C@@H]2O[C@H](CO)[C@@H](O)[C@H](O)[C@H]2O)cc1; experiment: purified protein; details: 20 mM citrate phosphate pH 5.6, 60 °C
purified protein [2] = substrate: O=[N+]([O-])c1ccc(O[C@@H]2OC[C@@H](O)[C@H](O)[C@H]2O)cc1; experiment: purified protein; type: biochemical, Rhodothermus marinus; details: 20 mM citrate phosphate pH 5.6, 60 °C
purified protein [3] = substrate: CC(=O)N[C@H]1[C@H](Oc2ccc([N+](=O)[O-])cc2)O[C@H](CO)[C@@H](O)[C@@H]1O; experiment: purified protein; type: biochemical, Rhodothermus marinus; details: 20 mM sodium phosphate buffer, 60 °C

T1 sequence (D0MHL5 entry or part of it): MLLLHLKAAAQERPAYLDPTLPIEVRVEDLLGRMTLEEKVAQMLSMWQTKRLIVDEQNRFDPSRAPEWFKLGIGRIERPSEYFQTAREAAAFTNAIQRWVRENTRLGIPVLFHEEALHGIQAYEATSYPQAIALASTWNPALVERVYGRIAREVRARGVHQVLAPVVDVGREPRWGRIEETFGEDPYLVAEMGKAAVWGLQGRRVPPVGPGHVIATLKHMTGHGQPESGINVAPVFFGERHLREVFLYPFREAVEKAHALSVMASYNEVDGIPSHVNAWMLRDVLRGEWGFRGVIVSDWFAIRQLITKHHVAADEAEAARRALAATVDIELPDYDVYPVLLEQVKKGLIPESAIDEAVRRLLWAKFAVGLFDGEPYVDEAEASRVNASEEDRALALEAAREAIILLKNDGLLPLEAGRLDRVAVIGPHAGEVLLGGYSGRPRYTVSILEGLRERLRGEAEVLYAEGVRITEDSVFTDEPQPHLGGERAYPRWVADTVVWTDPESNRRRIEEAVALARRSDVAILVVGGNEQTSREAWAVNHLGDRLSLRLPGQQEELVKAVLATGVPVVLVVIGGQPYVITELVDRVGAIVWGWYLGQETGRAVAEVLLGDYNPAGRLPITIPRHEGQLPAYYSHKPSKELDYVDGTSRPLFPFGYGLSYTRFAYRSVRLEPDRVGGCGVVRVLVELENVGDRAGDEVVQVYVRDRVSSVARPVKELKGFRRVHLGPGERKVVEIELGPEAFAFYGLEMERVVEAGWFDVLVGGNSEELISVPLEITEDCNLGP

Molecule | Km (RmXyl3B) [µM] | Km (purified protein [1]) [µM] | kcat (purified protein [1]) [s⁻¹] | kcat/Km (purified protein [1]) [M⁻¹ s⁻¹] | Km (purified protein [2]) [µM] | kcat (purified protein [2]) [s⁻¹] | kcat/Km (purified protein [2]) [M⁻¹ s⁻¹] | Km (purified protein [3]) [µM] | kcat (purified protein [3]) [s⁻¹] | kcat/Km (purified protein [3]) [M⁻¹ s⁻¹]
O=[N+]([O-])c1ccc(O[C@@H]2O[C@H](CO)[C@@H](O)[C@H](O)[C@H]2O)cc1 [pNP-β-Glc] | 1600 ± 400 |  |  |  |  |  |  |  |  | 
O=[N+]([O-])c1ccc(O[C@@H]2OC[C@@H](O)[C@H](O)[C@H]2O)cc1 [pNP-β-Xyl] | 300 |  |  |  |  |  |  |  |  | 
B1 |  | 1600 ± 900 | 67.2 | 42900 |  |  |  |  |  | 
B2 |  | 6500 ± 800 | 29.2 | 4500 | 400 ± 0 | 50.1 ± 1.9 | 140000 ± 15700 |  |  | 
B3 |  |  |  |  |  |  |  | 100 ± 0 | 102 ± 3 | 1.31e+06 ± 50300
B4 |  | 100 ± 0 | 79.9 | 755000 | 11800 ± 1000 | 140.8 ± 0.6 | 12000 |  |  | 
B5 |  | 100 ± 0 | 49.5 | 511000 | 1200 ± 100 | 65.8 ± 0.4 | 56200 ± 700 |  |  | 
